Tested on: MS2 coat protein
Assay: apparent KD of MS2 coat protein; designed switch direction (-1 OFF switch, 1 ON switch): -1; higher = weaker reporter binding
Method in brief: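 Designed RNA switches were transcribed on Illumina chips by stalled E. coli RNA polymerase and titrated with SNAP-549-labelled MS2 coat protein from 0.7 or 1.5 nM, doubling to 3 µM. Step length ran from 0.8–1.5 h at the lowest concentration to 10–20 min at the highest. The apparent KD is the median over clusters for each design, from curve-fitted normalised cluster fluorescence.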

[1] = Eterna round: R95, input ligand: FMN 200 uM
[2] = Eterna round: R95, input ligand: microRNA oligo, concentration not stated
[3] = Eterna round: R95, input ligand: none
[4] = input ligand: microRNA oligo, concentration not stated

Row | Sequence | apparent KD of MS2 coat protein (input ligand: FMN 200 uM) | apparent KD of MS2 coat protein (input ligand: none) | apparent KD of MS2 coat protein [1] | apparent KD of MS2 coat protein [2] | apparent KD of MS2 coat protein [3] | apparent KD of MS2 coat protein [4]
1 | GUAGAGUCAGGAUAUACGCGAUCGAAAGAUCGGUGGUCCUUACAUGAGGAUCACCCAUGUAGAAGGGACUCUAC [Omei mod 13 to Eli's favorate candidate (ch.parushev)] (Eterna round: R97, puzzle: Exclusion 2) | 65.9 nM | 580 nM |  |  |  | 
2 | CAGUACUGAGGAUAUACAUGAGGAUCACCCAUGUGUUCCAGCUAGGAUACUAGCAAAAGUAGAAGGCAGUACUG [salish99_ex3_r3_095x] (puzzle: Exclusion 3) |  |  | 484 nM | 30.4 nM | 24 nM | 
3 | AACCUGAGGCUUUGCUUUAGGUUUACAUGAGGAUCACCCAUGUAGGAUAUGGUAGGCUUUGCUUACCAGAAGGACAUGAUAAUU [Mat - Exclusion NG 3 - Mod of JL - D27] (Eterna round: R96, puzzle: Exclusion NG 3) | 215 nM | 43.8 nM |  |  |  | 33 nM
4 | CGGUCCUGAGUGAGGAUAUUGUCAGGCGAAGCCUGCAAGAAGGUACUUGAGGAUCACCCAAGUACGCUCUUGGC [Estimama] (Eterna round: R97, puzzle: Brourd's mod of Exclusion 4) | 21.2 nM | 16.8 nM |  |  |  | 
5 | UGUGCGUAUGUGAGGAUAUGCUGGUCCUUGGAUCGGCAGAAGGCACAUGAGGAUCACCCAUGUGGUGUCGUACU [salish99_Bmod_ex4_083] (puzzle: Brourd's mod of Exclusion 4) |  |  |  | 235 nM |  | 
6 | UCGUUCCGUGUAGGAUAUUGGCCUUCUCUGGGCCGAGAAGGACAUGAGGAUCACCCAUGUAUGUUAUUAUCGCGCGUGGCGCAU [Design 85] (Eterna round: R96, puzzle: Exclusion NG 1) |  |  |  |  |  | 24.7 nM
7 | GAAAAGGUAGGAUAUACGAAAAAAAAGGGUAGAAAAAAAACACAUGAGGAUCACCCAUGUAGAAGGACCAAAAG [salish99_ex2_r3_015] (puzzle: Exclusion 2) |  |  | 57.8 nM | 28.7 nM | 27.2 nM | 
8 | GUGUACAGAGGAUAUGCACGAGUAGUUACGAAAGUAACUACACAUGAGGAUCACCCAUGUAGAAGGCUGUACAC [Dot plot directed v1] (puzzle: Exclusion 2) |  |  |  | 13.3 nM |  | 
9 | CUCCGGCGUGUAGGAUAUGGAUCCGAUUAGGAUCCAGAAGGACAUGAGGAUCACCCAUGUACAUGUAGACGGUCGUCACCGGGC [salish99_ExNG1_r04_208] (Eterna round: R96, puzzle: Exclusion NG 1) | 195 nM | 42.1 nM |  |  |  | 32 nM
10 | CGCGAACAUGAGGAUCACCCAUGUGAGGAUAUCAUGCUUCGUAGUAAACUACGAAGUGUGAGAAGGCACAUGCG [Omei Ex1 D5] (Eterna round: R97, puzzle: Exclusion 1) | 297 nM | 164 nM |  |  |  | 
11 | GAUGAGGUAGGAUAUACGAGAAGAUAGGGUAGAUAGAUAACACAUGAGGAUCACCCAUGUAGAAGGACCAGUAG [Mat - Exclusion 2 - Mod of my Tesla design - D72] (puzzle: Exclusion 2) |  |  |  | 32.5 nM |  | 
12 | AUCAGCUCGUCAGGAUAUACAUGCGUGCUUCGGCACGAAUUUAAGAUCACAUGAGGAUCACCCAUGUAGAAGGGACGAGCUGAU [ENG2/3-B3] (Eterna round: R96, puzzle: Exclusion NG 2) | 1270 nM | 526 nM |  |  |  | 498 nM
13 | GCAGCACAUGUAGGAUAUCUGCACGUGUAGUGCAGAGAAGGACAUGAGGAUCACCCAUGUAAUUAAGAUCAAUUAUUAAGCUGC [ENG1/3-C3] (Eterna round: R96, puzzle: Exclusion NG 1) | 519 nM | 49.1 nM |  |  |  | 42.4 nM

Reference: the supplement of paper PMC9170038
